Assay results published in patent US20090192289A1 (Genentech, published 2009).
Where no end group is shown, it is not given here.

T1: GST-Omi PDZ fusion protein (human, UniProt O43464 359-458)
T1 construct: also called GST-hOmiPDZ; hOmi PDZ domain; not shown: glutathione S-transferase (GST) encoded by plasmid pGEX6P-3
T1 sequence: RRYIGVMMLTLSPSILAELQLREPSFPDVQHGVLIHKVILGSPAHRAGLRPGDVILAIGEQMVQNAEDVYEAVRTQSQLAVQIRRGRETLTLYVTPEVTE


Target: T1, GST-Omi PDZ fusion protein
Assay: competition ELISA
Experimental: (§1) Affinity Assays—The binding affinities of peptides for Omi PDZ were determined as IC₅₀ values using a previously described competition ELISA(18). The IC₅₀ value was defined as the concentration of peptide that blocked 50% of PDZ domain binding to immobilized peptide. Assay plates were prepared by immobilizing an amino-terminally biotinylated peptide (biotin-GWTMFWV) on maxisorp plates coated with NeuTravidin and blocked with BSA. A fixed concentration of GST-Omi PDZ fusion protein (20 nM) in PBS, 0.5% BSA, 0.1% Tween 20 (PBT buffer) was preincubated for 1 h with serial dilutions of peptide and then transferred to the assay plates. After 1 h incubation, the plates were washed with PBS, 0.05% Tween 20, incubated for 30 min with HRP/anti-GST antibody (1:10,000) in PBT buffer, washed again, and detected with 3,3′,5,5′-Tetramethyl-benzidine/H₂O₂ (TMB) peroxidase substrate.

Row | Binder | fold increase of IC50 vs SWTMFWV (hOmi_c1) | binding result | fold lower affinity vs SWTMFWV (hOmi_c1) | fold reduction of binding affinity vs … (hOmi_n1) | fold lower affinity vs … (hOmi_n1) | fold lower affinity vs the optimized peptide derived from libC (hOmi_c1)
1 | Ac-SWTMFWA-OH (also called SWTMFWA) [hOmi_c1_A1] | 3 fold | – | – | – | – | –
2 | Ac-AWTMFWV-OH (also called AWTMFWV) [hOmi_c1_A7] | – | binds | – | – | – | –
3 | Ac-RFPHFWV-OH (synthetic peptide from libC; also called RFPHFWV) [hOmi_c2] | – | – | 50 fold | – | – | –
4 | Ac-WTMFWV-OH (also called WTMFWV) [hOmi_c1_t1] | – | binds | – | – | – | –
5 | H-HWWGGWLG-NH2 [hOmi_n1_t6] | – | – | – | 3 fold | – | –
6 | Ac-TMFWV-OH (also called TMFWV) [hOmi_c1_t2] | – | – | 15 fold | – | – | –
7 | H-SHWW-NH2 (also called SHWW; tetrapeptide (SHWW)) [hOmi_n1_t5] | – | – | – | – | 3 fold | –
8 | Ac-GQYYFV-OH (synthetic peptide, optimized ligand reported previously from a chemically synthesized library; also called GQYYFV) [PDZ-Opt] | – | – | – | – | – | 5 fold

Target: T1, GST-Omi PDZ fusion protein
Assay: competition ELISA, immobilized biotin-GWTMFWV
Experimental: as §1

Row | Binder | binding result
9 | H-SHWWGG-NH2 (also called SHWWGG) [hOmi_n1_t3] | no binding

Target: T1, GST-Omi PDZ fusion protein
Assay: phage ELISA on GST-Omi PDZ after three rounds of selection
Experimental: Selection for Omi PDZ peptides—Previously described procedures were used to isolate peptides that bound to a GST-Omi PDZ fusion, using libraries of random decapeptides fused to either the C terminus(18) or octapeptide fused to the N terminus(19) of the M13 gene-8 major coat protein, designated as libC or libN, respectively. After three rounds of selection, individual clones were grown in a 96-well format in 500 μL of 2YT broth supplemented with carbenicillin, kanamycin and KO7, and the culture supernatants were used directly in phage ELISAs(19) to detect peptides that bound specifically to Omi PDZ. Peptide sequences derived from positive clones were aligned and tabulated. A total of 95 positive colonies from libC and 89 from libN were analyzed. (see Table II). […] The sequences were selected after three rounds of sorting with IPTG induction. Hydrophobic residues (A, F, I, L, M, V, W, Y) are italicized and bolded, n is the number of siblings.

Row | Binder | binding result
10 | ESLWWGWEG (not fully specified (C-terminus), 7 siblings; not shown: M13 gene-8 major coat protein (P8)) [libN phage-displayed peptide ESLWWGWEG] | binds
11 | WGYWWGPGG (not fully specified (C-terminus), not shown: M13 gene-8 major coat protein (P8)) [libN phage-displayed peptide SEQ ID NO:51] | binds
12 | SSFFRFWFV (not fully specified, not shown: M13 gene-8 major coat protein (P8)) [libC phage-displayed peptide SEQ ID NO:30] | binds
13 | GIAGFWWDG (not fully specified (C-terminus), 9 siblings; not shown: M13 gene-8 major coat protein (P8)) [libN phage-displayed peptide GIAGFWWDG] | binds
14 | WIAGFWWDG (not fully specified (C-terminus), not shown: M13 gene-8 major coat protein (P8)) [libN phage-displayed peptide SEQ ID NO:56] | binds
15 | STDYWWGCG (not fully specified (C-terminus), not shown: M13 gene-8 major coat protein (P8)) [libN phage-displayed peptide SEQ ID NO:52] | binds
16 | SSDYWWGCG (not fully specified (C-terminus), not shown: M13 gene-8 major coat protein (P8)) [libN phage-displayed peptide SEQ ID NO:54] | binds
17 | TGMSWTIWFL (not fully specified (N-terminus), not shown: M13 gene-8 major coat protein (P8)) [libC phage-displayed peptide SEQ ID NO:41] | binds
18 | KVASWTMFWV (not fully specified, 42 siblings; not shown: M13 gene-8 major coat protein (P8)) [libC phage-displayed peptide KVASWTMFWV] | binds
19 | DSLLFDFWWA (not fully specified, not shown: M13 gene-8 major coat protein (P8)) [libC phage-displayed peptide SEQ ID NO:28] | binds
20 | LYSIYRFFWA (not fully specified, not shown: M13 gene-8 major coat protein (P8)) [libC phage-displayed peptide SEQ ID NO:33] | binds
21 | WEWIGMEWG (not fully specified (C-terminus), 31 siblings; not shown: M13 gene-8 major coat protein (P8)) [libN phage-displayed peptide WEWIGMEWG] | binds
22 | SLLNWVLYLV (not fully specified (N-terminus), not shown: M13 gene-8 major coat protein (P8)) [libC phage-displayed peptide SEQ ID NO:42] | binds
23 | DRLNWLFFWI (not fully specified, not shown: M13 gene-8 major coat protein (P8)) [libC phage-displayed peptide SEQ ID NO:31] | binds
24 | FLGFLEFFWI (not fully specified, not shown: M13 gene-8 major coat protein (P8)) [libC phage-displayed peptide SEQ ID NO:34] | binds
25 | TRANWLFFWV (not fully specified (N-terminus), not shown: M13 gene-8 major coat protein (P8)) [libC phage-displayed peptide SEQ ID NO:38] | binds
26 | GIVWFWWDG (not fully specified (C-terminus), not shown: M13 gene-8 major coat protein (P8)) [libN phage-displayed peptide SEQ ID NO:55] | binds

Row | Binder | binding result
27 | GGFWWGPAG (not fully specified (C-terminus), 5 siblings; not shown: M13 gene-8 major coat protein (P8)) [libN phage-displayed peptide GGFWWGPAG] | binds
28 | GLMPLLFFWV (not fully specified (N-terminus), not shown: M13 gene-8 major coat protein (P8)) [libC phage-displayed peptide SEQ ID NO:43] | binds
29 | RIPFLFFLWA (not fully specified (N-terminus), not shown: M13 gene-8 major coat protein (P8)) [libC phage-displayed peptide SEQ ID NO:39] | binds
30 | IPLHWIFYLV (not fully specified (N-terminus), not shown: M13 gene-8 major coat protein (P8)) [libC phage-displayed peptide SEQ ID NO:46] | binds
31 | AGDSWWWGG (not fully specified (C-terminus), 4 siblings; not shown: M13 gene-8 major coat protein (P8)) [libN phage-displayed peptide AGDSWWWGG] | binds
32 | GDIVCTWGG (not fully specified (C-terminus), not shown: M13 gene-8 major coat protein (P8)) [libN phage-displayed peptide SEQ ID NO:53] | binds
33 | YPTYWTFWWV (not fully specified, not shown: M13 gene-8 major coat protein (P8)) [libC phage-displayed peptide SEQ ID NO:32] | binds
34 | WVDSCPIFWV (not fully specified (N-terminus), not shown: M13 gene-8 major coat protein (P8)) [libC phage-displayed peptide SEQ ID NO:45] | binds
35 | SKLRLFFMWV (not fully specified (N-terminus), not shown: M13 gene-8 major coat protein (P8)) [libC phage-displayed peptide SEQ ID NO:40] | binds
36 | WLDRFPHFWV (not fully specified (N-terminus), 15 siblings; not shown: M13 gene-8 major coat protein (P8)) [libC phage-displayed peptide WLDRFPHFWV] | binds
37 | NQRVWIFWLI (not fully specified, not shown: M13 gene-8 major coat protein (P8)) [libC phage-displayed peptide SEQ ID NO:29] | binds
38 | SFYILRYFWV (not fully specified, not shown: M13 gene-8 major coat protein (P8)) [libC phage-displayed peptide SEQ ID NO:35] | binds
39 | PGRWGPFFWV (not fully specified, not shown: M13 gene-8 major coat protein (P8)) [libC phage-displayed peptide SEQ ID NO:27] | binds
40 | SHWWGGWLG (not fully specified (C-terminus), 17 siblings; not shown: M13 gene-8 major coat protein (P8)) [libN phage-displayed peptide SEQ ID NO:49] | binds
41 | TMSDWLFWWA (not fully specified (N-terminus), not shown: M13 gene-8 major coat protein (P8)) [libC phage-displayed peptide SEQ ID NO:36] | binds
42 | TVHSWFLWFV (not fully specified (N-terminus), not shown: M13 gene-8 major coat protein (P8)) [libC phage-displayed peptide SEQ ID NO:44] | binds
43 | ATEFWWGVG (not fully specified (C-terminus), 10 siblings; not shown: M13 gene-8 major coat protein (P8)) [libN phage-displayed peptide SEQ ID NO:50] | binds

Target: T1, GST-Omi PDZ fusion protein
Assay: competition ELISA, 20 nM GST-Omi PDZ, immobilized biotin-GWTMFWV as competitor
Experimental: as §1

Row | Binder | IC50
44 | H-SHWWGGW-NH2 (also called SHWWGGW) [hOmi_n1_t2] | 26 µM
45 | Ac-SWTMFWV-OH (synthetic peptide from libC; also called SWTMFWV) [hOmi_c1] | 3.3 µM
46 | Ac-SWTMFWA-OH (also called SWTMFWA) [hOmi_c1_A1] | 10.6 µM
47 | Ac-MFWV-OH (also called MFWV) [hOmi_c1_t3] | 24.1 µM
48 | Ac-RFPHFWV-OH (synthetic peptide from libC; also called RFPHFWV) [hOmi_c2] | 162 µM
49 | H-SHWWGGWLG-NH2 (synthetic peptide from libN) [hOmi_n1] | 21.6 µM
50 | H-SHWW-NH2 (also called SHWW; tetrapeptide (SHWW)) [hOmi_n1_t5] | 72.2 µM
51 | H-ATEFWWGVG-NH2 (synthetic peptide from libN) [hOmi_n4] | 32.4 µM
52 | H-SHWWGGWL-NH2 [hOmi_n1_t1] | 17.6 µM
53 | Ac-GQYYFV-OH (synthetic peptide, optimized ligand reported previously from a chemically synthesized library; also called GQYYFV) [PDZ-Opt] | 17.6 µM
